This note sets out measurements from US20240251767A1 (LEVERAGEN, published 2024).

Read-outs that look alike come from different tables or passages of the source.

For assay [1], the target named is T1, SARS-Cov2 Spike Active Trimer SAT (R&D Systems; Catalog No. 10549-CV) (SARS-CoV2, UniProt P0DTC2 16-1211).
T1 construct: also called SARS-CoV2 Spike Active Trimer protein; recombinant SAT protein
Description: ELISA, serially diluted purified Nb-Fc on SAT antigen. On the technique in general: An ELISA detects its analyte on a solid surface through an enzyme-linked reagent.

Assay [2] has as its target T1, SARS-Cov2 Spike Active Trimer SAT (R&D …).
The target is the same in assay [3].
Assay [4] has the same target. Description: SPR (Carterra).

B1: M2S521_378 Nb-human Fc fusion (Fc fusion, not shown: a dimerising Fc or GST)
VH: EVQLQQSGPELVKPGASVKISCKASGYTFTDYYMKWVKQSHGKSLEWIGDINPKNGGTNYNQKFKDKATLTVDKSSSTAYMELRSLTSEDSAVYYCARLEDGYYGYAIDYWSQGTSVTVSS
notes: also called LVGN-S231378; LVGN-S521378
Molecule B1 displayed a 50% effective concentration (EC50) in assay [1] of 0.081 nM.

B2: MS329_5 Nb-human Fc fusion (Fc fusion, not shown: a dimerising Fc or GST)
VH: EVQLQQSGPELVKPGASVKMSCKASGYTFTDYYIKWEKQSHGKSLEWIGDINPKNGETFYNQQFKGKATLTVDKSSSTAYMQLNSLTSEDSAVYYCARKEYGDYGYAVDYWGQGTSVTVSS
notes: also called LVGN-S3205; LVGN-53205
In the case of B2, in assay [1], the response was half-maximal at 0.024 nM (EC50). The equilibrium dissociation constant (Kd) in assay [2] worked out at 1.21 nM. Moreover, in assay [3], the affinity, expressed as Kd, was 1.06 nM; the dissociation rate constant (koff) stood at 0.000143 s⁻¹; the association rate constant (kon) turned out to be 135000 M⁻¹ s⁻¹. This molecule displayed a Kd in assay [4] of 3.17 nM.

A word on the EC50: it is the concentration needed to bring the measured effect to its halfway point. The term Kd denotes the free concentration of one partner at which half of the binding sites on the other are occupied at equilibrium, for simple one-to-one binding. Broadly, the koff is a measure of how fast the partners let go of each other. High values mean fast dissociation, low ones slow dissociation. Usually kon stands for the second-order rate constant of association. A lower kon goes with slower complex formation.
